Results from article doi:10.1101/2023.01.09.523197.

Molecular target: M. tuberculosis RNA polymerase holoenzyme (M. tuberculosis) (UniProt P9WGZ1)
Assay: single-molecule fluorescence

Question: For “M. tuberculosis GlnR C60SL147C labelled with Alexa Fluor 647 (from UniProt O53830 1-255) (natural protein)”, which stoichiometry N is on record?
Answer: The stoichiometry N was 4.
